Substitutions are numbered along the chain they refer to.
B1: AT-Pro394: human antithrombin with insertion of a Proline between positions 393 and 394 (protein, listed as Homo sapiens)
chain: HGSPVDICTAKPRDIPMNPMCIYRSPEKKATEDEGSEQKIPEATNRRVWELSKANSRFATTFYQHLADSKNDNDNIFLSPLSISTAFAMTKLGACNDTLQQLMEVFKFDTISEKTSDQIHFFFAKLNCRLYRKANKSSKLVSANRLFGDKSLTFNETYQDISELVYGAKLQPLDFKENAEQSRAAINKWVSNKTEGRITDVIPSEAINELTVLVLVNTIYFKGLWKSKFSPENTRKELFYKADGESCSASMMYQEGKFRYRRVAEGTQVLELPFKGDDITMVLILPKPEKSLAKVEKELTPEVLQEWLDELEEMMLVVHMPRFRIEDGFSLKEQLQDMGLVDLFSPEKSKLPGIVAEGRDDLYVSDAFHKAFLEVNEEGSEAAASTAVVIAGRPSLNPNRVTFKANRPFLVFIREVPLNTIIFMGRVANPCVK
B2: AT-ΔR393: human antithrombin with deletion of the amino acid at position 393 (protein, listed as Homo sapiens)
chain: HGSPVDICTAKPRDIPMNPMCIYRSPEKKATEDEGSEQKIPEATNRRVWELSKANSRFATTFYQHLADSKNDNDNIFLSPLSISTAFAMTKLGACNDTLQQLMEVFKFDTISEKTSDQIHFFFAKLNCRLYRKANKSSKLVSANRLFGDKSLTFNETYQDISELVYGAKLQPLDFKENAEQSRAAINKWVSNKTEGRITDVIPSEAINELTVLVLVNTIYFKGLWKSKFSPENTRKELFYKADGESCSASMMYQEGKFRYRRVAEGTQVLELPFKGDDITMVLILPKPEKSLAKVEKELTPEVLQEWLDELEEMMLVVHMPRFRIEDGFSLKEQLQDMGLVDLFSPEKSKLPGIVAEGRDDLYVSDAFHKAFLEVNEEGSEAAASTAVVIAGSLNPNRVTFKANRPFLVFIREVPLNTIIFMGRVANPCVK
B3: AT-ΔS394: human antithrombin with deletion of the amino acid at position 394 (protein, listed as Homo sapiens)
chain: B2 chain with S393R
B4: AT-ΔR393-S394: human antithrombin with deletion of the amino acids at positions 393 and 394 (protein, listed as Homo sapiens)
chain: HGSPVDICTAKPRDIPMNPMCIYRSPEKKATEDEGSEQKIPEATNRRVWELSKANSRFATTFYQHLADSKNDNDNIFLSPLSISTAFAMTKLGACNDTLQQLMEVFKFDTISEKTSDQIHFFFAKLNCRLYRKANKSSKLVSANRLFGDKSLTFNETYQDISELVYGAKLQPLDFKENAEQSRAAINKWVSNKTEGRITDVIPSEAINELTVLVLVNTIYFKGLWKSKFSPENTRKELFYKADGESCSASMMYQEGKFRYRRVAEGTQVLELPFKGDDITMVLILPKPEKSLAKVEKELTPEVLQEWLDELEEMMLVVHMPRFRIEDGFSLKEQLQDMGLVDLFSPEKSKLPGIVAEGRDDLYVSDAFHKAFLEVNEEGSEAAASTAVVIAGLNPNRVTFKANRPFLVFIREVPLNTIIFMGRVANPCVK

Target: T1, factor Xa (Homo sapiens, UniProt P00742)
T1 construct: purchased Kordia
Experiment: Kinetic assay of factor Xa inhibition by antithrombins in a purified system (chromogenic substrate, continuous or discontinuous)
Assay type: biochemical
Conditions: with or without pentasaccharide; compared with plasma / wild type antithrombin
Method: Briefly, factor Xa is incubated with an excess of tested antithrombins (corresponding to plasma antithrombin, or wild type antithrombin or mutated antithrombins and varying in each assay realized) in the presence or absence of pentasaccharide (Fondaparinux sodique, Arixtra®, GlaxoSmithKline) and the factor Xa residual activity is measured as a function of time. The pentasaccharide is added in excess in the reaction media so that every tested antithrombin is bound to the pentasaccharide. In the absence of pentasaccharide, polybrene is added in order to neutralize any sulfated glycosaminoglycan that may be present in the reaction media. The residual factor Xa activity is measured as the increase in absorbance at 405 nm resulting from cleavage of the chromogenic substrate (S2765 or S2222, Chromogenix) using a microplate reader (Dynatech MR 5000). The analysis of the data is performed using the GraphPad Prism version 3 software. Absorbance recording is continuous or discontinuous according to the expected inhibition rate constant (kon).
The inhibition rate constant (kon) is the second order rate constant given in M^−1·s^−1 which define the velocity of stable complex formation between protease and antithrombin (higher is the kon value, faster will the complex be established).
When the expected kon is lower than 10^4 M^−1·s^−1 the discontinuous method is used. Factor Xa (0.2 to 1 μM, or 0.1 to 1 μM) is incubated with tested antithrombins (0.2 to 10 μM, or 1 to 10 μM) in the presence of pentasaccharide (10 to 100 μM) or polybrene (100 μg/ml) in a final volume of 10 μl for 10 seconds to 5 hours, or 10 seconds to 24 hours. At the end of this incubation period, 190 μl of kinetic buffer containing 200 μM substrate is added and absorbance at 405 nm is recorded.
The kinetic rate constant (k) is estimated by fitting the substrate hydrolysis initial rate curve to equation (1) using non-linear regression with v0 and v∞ being the substrate hydrolysis rate at time to or too respectively. […] (1)
The inhibition rate constant (kon) is calculated from the rate constant (k) using equation (2) where AT is the tested antithrombin concentration. k=AT·kon (2)
When the expected kon is higher than 10^4 M^−1·s^−1′ the continuous method is used. The tested antithrombin (0.01 to 1 μM, or 0.1 to 1 μM) is incubated with the substrate (200 μM) in the presence of pentasaccharide or polybrene in a final volume of 100 μL, or 190 μl, and the reaction is started by addition of 100 μL, or 10 μL, of factor Xa (2 nM or 10 nM). The rate constant (k) is obtained by fitting the substrate hydrolysis curve to equation (3) or (3′) using non-linear regression analysis where A0 is the absorbance at t0, and vi and vs are respectively the initial and final rates of substrate hydrolysis in the absence of tested antithrombin. A405=A0+vi·(1−exp(−k·t))/k. (3) Equation (3′) is also used, particularly in presence of plasma. A405=A0+vs*t+(vi−vs)*(1−exp(−k·t))/k. (3′)
The inhibition rate constant (kon) is calculated from the kinetic constant (k) using equation (4) that takes into account the competitive effect of the substrate, with S being the initial substrate concentration, Km, the Michaelis constant for factor Xa-substrate interaction, AT the tested antithrombin concentration. k=(kon/(1+S/Km))·[AT] (4)
Mutated antithrombins and wild type AT inhibitory activity are measured in the same conditions and compared with plasma AT inhibitory activity.

T1 sequence (P00742 235-488 limits assumed): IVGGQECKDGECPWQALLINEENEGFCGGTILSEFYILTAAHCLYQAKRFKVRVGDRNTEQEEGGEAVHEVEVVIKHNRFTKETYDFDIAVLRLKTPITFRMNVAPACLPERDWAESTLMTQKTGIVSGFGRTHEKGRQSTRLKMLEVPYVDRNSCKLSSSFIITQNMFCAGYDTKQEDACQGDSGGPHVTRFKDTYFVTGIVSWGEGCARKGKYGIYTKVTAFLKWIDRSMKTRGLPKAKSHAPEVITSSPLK
T1 sequence (P00742 41-179 partner limits assumed): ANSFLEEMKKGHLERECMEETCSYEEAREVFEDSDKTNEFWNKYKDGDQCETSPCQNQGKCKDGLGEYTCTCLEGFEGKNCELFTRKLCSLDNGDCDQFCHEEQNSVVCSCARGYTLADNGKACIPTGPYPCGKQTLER

Molecule	factor Xa inhibitory activity
B1	negligible
B2	negligible
B3	negligible
B4	negligible

System: pentasaccharide bound murine antithrombin (plasma anti-Xa activity)
Experiment: Anti factor Xa assay in mouse plasma supplemented with Fondaparinux
Assay type: biochemical
Conditions: not given
Method: During the animal experimentation (see detailed protocol below), human mutated antithrombins compete with murine antithrombin for their binding to the pentasaccharide. Thus, preliminary in vitro assays are performed to determine the human mutated antithrombin concentration necessary to compete with the murine antithrombin present in mouse plasma supplemented with Fondaparinux.
These experiments are performed as described in section II-b, using mouse plasma instead of human plasma.

Molecule	effect on anti-Xa activity of pentasaccharide contained in mouse plasma
B1	significant decrease
B2	significant decrease
B3	significant decrease
B4	significant decrease

System: plasma anti FXa activity in mice treated with pentasaccharide
Experiment: Murine model: mutated antithrombins as antidotes of fondaparinux, plasma anti FXa activity
Assay type: in vivo, mouse
Conditions: injection of mutated antithrombin after fondaparinux
Method: The efficiency of the mutated antithrombins AT-R393H(SEQ ID NO: 4), AT-Pro394 (SEQ ID NO: 6), AT-ΔR393-S394 (SEQ ID NO: 18), AT-ΔR393 (SEQ ID NO: 8), AT-ΔS394 (SEQ ID NO: 10), AT-N135Q-R393H(SEQ ID NO: 14), AT-N135Q-Pro394 (SEQ ID NO: 16), AT-N135Q-ΔR393-S394 (SEQ ID NO: 24), AT-N135Q-ΔR393 (SEQ ID NO: 20), AT-N135Q-A5394 (SEQ ID NO: 22) as antidotes is evaluated in a murine model.
The different drugs to be tested (fondaparinux, low molecular weight heparin, full length heparin and the mutated antithrombins) are administrated by intra-venous injection in the caudal vein to avoid the variability encountered when administration is performed subcutaneously. However, Heparin derivatives (fondaparinux, low molecular weight heparin and full length heparin) could also be administrated subcutaneously.
The blood is collected by punction in cave vein into tubes containing 0.105 mol/L trisodium citrate (1:10). Platelet-poor plasma is obtained by centrifugation at 2300 g for 10 minutes at 12° C. and stored at −80° C. until use.
The following elements are determined: • the doses of fondaparinux inducing an overdose in mice, • the mutated antithrombins time course, and in particular the time required to observe a maximal biological effect, • the minimal doses of mutated antithrombins necessary to neutralize fondaparinux.
For each of these experiments, 4 groups of 5 mice each are used: • In the first group mice receive fondaparinux vehicle and then antidote (mutated antithrombin) vehicle. • In the second group, mice receive fondaparinux and then antidote vehicle • In the third group, mice receive fondaparinux vehicle and then antidote • In the last group, mice receive fondaparinux and then antidote
Anti FXa activity measurements is performed as previously described using a Stachrom Heparin® kit on a STA (Stago, France) or a Rotachrom Heparin® kit with procedure adapted for measurement in microplate reader (Dynatech MR 5000). A calibration curve with pentasaccharide is performed, allowing the expression of the results in nmol/ml (or in mg/L) of plasma.
Thus, the antidote (mutated antithrombins) is administered intravenously, 5 min after the intra-venous injection of the fondaparinux, and 5, 15 or 30 min after the subcutaneous injection of the fondaparinux.
The mutated antithrombin time course is studied by measuring the plasma anti-Xa activity 5 min, 10 min, 20 min and 40 min after the antidote administration.
Once the time of action determined, a dose response curve is performed in vivo to determine the dose of antidote necessary to obtain a decrease in Fondaparinux plasma concentration within the therapeutic range around 1.2 nmol/ml (or 2 mg/L), or around 0.7 nmol/ml (or 1.2 mg/L).

Molecule	plasma anti FXa activity in mice treated with pentasaccharide
B1	significant decrease
B2	significant decrease
B3	significant decrease
B4	significant decrease

— patent US8741844B2, “Use of mutated antithrombins for treating or preventing coagulation disorders” (Universite Paris-Sud XI, priority 2007, dated 2014)
